# Earlier results in article PMC2652250.
# Target: cardiac troponin I 147-163 (Homo sapiens) (UniProt P19429)
# Experiment: NMR
substance,measurement,value
cardiac troponin C (cNTnC) N-terminal domain (from UniProt P63316),Kd,154 µM
